The target in test [1] is Neuronal calcium sensor-1 (NCS-1), N-terminal His tag removed with TEV protease (UniProt P62166 1-190). As to the kind of experiment: other fluorescence titration; intrinsic tryptophan fluorescence of 1 μM NCS-1 (excitation 280 nm, emission 290-410 nm), PQIQ peptide added stepwise; 50 mM Tris pH 7.5, 50 mM NaCl, 5 mM CaCl2; room temperature; logistic fit; triplicate. The conditions noted are these: both partners purified.

Test [2] has as its target Calmodulin (CaM) expressed from pET-15b (UniProt P0DP23 1-149). As to the kind of experiment: NMR titration; 1H-15N HSQC of [15N]NCS-1 (0.8 mM) with PQIQ peptide, then equimolar unlabelled CaM/Ca2+ added to the preformed complex; 50 mM Tris pH 6.5, 50 mM NaCl, 5 mM CaCl2, 300 K. Conditions: both partners purified.

Sequence of Neuronal calcium sensor-1 (NCS-1), N-terminal His tag removed with TEV protease (P62166 whole entry): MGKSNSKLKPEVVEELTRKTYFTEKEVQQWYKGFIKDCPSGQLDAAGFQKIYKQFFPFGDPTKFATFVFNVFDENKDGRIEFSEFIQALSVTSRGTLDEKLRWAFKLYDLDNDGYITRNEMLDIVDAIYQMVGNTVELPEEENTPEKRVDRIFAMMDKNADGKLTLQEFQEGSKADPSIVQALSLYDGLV

B1: PQIQ peptide, synthetic P/Q peptide corresponding to residues 1903-1929 of the human P/Q receptor (peptide)
peptide: TVGKIYAAMMIMEYYRQSKAKKLQAMR
In the case of B1, the EC50 (in general, the concentration at which the effect is half-maximal) in test [1] came to 1040 ± 70 nM. The binding result in test [2] is reported as “binds”.

These data come from paper PMC4180279 (Biochemistry, 2014).
